Source: PMC2715020, “Identification, functional characterization and developmental regulation of sesquiterpene synthases from sunflower capitate glandular trichomes” (BMC Plant Biology, 2009)

T1: HaCS (HaTPS2) (Helianthus annuus, UniProt Q4U3F6)
T1 sequence (Q4U3F6 1-555): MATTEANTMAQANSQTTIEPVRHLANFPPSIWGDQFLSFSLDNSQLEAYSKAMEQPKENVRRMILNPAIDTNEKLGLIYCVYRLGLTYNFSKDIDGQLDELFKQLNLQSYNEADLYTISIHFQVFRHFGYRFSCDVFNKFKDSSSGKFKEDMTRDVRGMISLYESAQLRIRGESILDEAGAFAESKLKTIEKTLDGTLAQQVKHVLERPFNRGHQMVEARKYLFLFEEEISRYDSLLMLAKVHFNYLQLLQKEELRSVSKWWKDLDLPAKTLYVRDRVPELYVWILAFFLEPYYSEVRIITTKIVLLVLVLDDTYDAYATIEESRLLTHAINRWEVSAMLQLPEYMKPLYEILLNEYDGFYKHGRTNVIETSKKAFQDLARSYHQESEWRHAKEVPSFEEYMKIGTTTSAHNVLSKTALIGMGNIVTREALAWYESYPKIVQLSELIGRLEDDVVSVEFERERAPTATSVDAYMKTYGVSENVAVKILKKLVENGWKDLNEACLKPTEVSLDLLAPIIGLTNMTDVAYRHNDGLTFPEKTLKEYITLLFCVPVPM

B1: HaGAS1 (HaTPS1a; native, thioredoxin removed) (Helianthus annuus) (protein)
chain: MAAVGASATPLTNTKSTAEPVRPVANFPPSVWGDLFLSFSLDKSIMEEYAEAMEEPKEQVRRLILDPTMDSNKKLSLIYTVHRLGLTYMFLKEIEAQLDRLFKEFNLEDYVELDLYTISINFQAFRHLGYKLPCDVFNKFKNDDSTTFKESITGDVRGMLGLYESAQLRLKGENILDEASAFAETKLKSLVNTLEGSLAQQVKQSLRRPFHQGMPMVEARLYFSNYQEECSAHDSILKLAKLHFNYLQLQQKEELRIVSQWWKDMRFQETTPYIRDRVPEIYLWILGLYFEPRYSLARIIATKITLFLVVLDDTYDAYATIEEIRLLTDAINRWDISAMNQIPEYIRPFYKILLDEYAELEKQLAKEGRANSVIASKEAFQDIARGYLEEAEWTNSGYVASFPEYMKNGLITSAYNVISKSALVGMGEIVSEDALVWYESHPQILQASELISRLQDDVMTYQFERERGQSATGVDSYIKTYGVSEKVAIDELKKMIENAWKEINEGCLKPREVSMDLLAPILNLARMIDVVYRYDDGFTFPGKTLKEYITLLFVGSSPM
notes: expressed in E. coli from pET-32 EK/LIC, thioredoxin part removed by enterokinase
B2: thioredoxin-HaGAS1 fusion protein (Helianthus annuus) (protein)
chain: B1 chain
notes: full length (559 residues) with uncleaved N-terminal thioredoxin and 6x-His tag (pET-32 EK/LIC), E. coli, Ni-NTA purified
B3: HaGAS2 (HaTPS1b; native, thioredoxin removed) (Helianthus annuus) (protein)
chain: MAAVGASATLLTNTKSAEEPVRPVANFPPSVWGDLFLSFSLDNSMMEEYAEAMEEPKGQVRKLILDPTMDSNKKLSLIYTVHRLGLTYMFFKEIEGQLDRLFKEFNLEDYVEVDLYTISTNFQAFRHLGYKLSCDVFNKFKNYDSNTFKESITSDVRGMLGLYESAQLRLKGEKILDEASAFTETKLKSLVKTLEGSLAQQVKQSLKRPFHQGMPMVEARLYFSNYQEECSRHDSLLKLAKLHFNYLQLQQKEELRIVSQWWKDMRFQETTPYIRDRVPEIYLWILGLYFEPRYSLARIIATKITLFLVVLDDTYDAYATIEEVRLLTDAINRWDIGAMSQIPEYIRPFYKILLDEYAELEKQLAKEGRANSVIASKEAFQDIARGYLEEAEWTNSGYVASFPEYMKNGLITSAYNVISKSALVGMGEIVSEDALAWYESHPQILQASELISRLQDDVMTYQFERERGQSATGVDAYIKTYGVSEKEAIDELKKMIENAWKEINEGCLKPREVSMDLLAPILNLARMIDVVYRYDDGFTFPGKTLKEYITLLFVGSSPM
notes: full length, 559 residues; expressed in E. coli from pET-32 EK/LIC, thioredoxin part removed by enterokinase

How the values were obtained:
[1] = molecular target: T1, HaCS (HaTPS2); experiment: GC-MS of products after incubation with FDP; type: biochemical; parameters: gene CS; N-terminal thioredoxin fusion (E. coli, Ni-NTA; also S. cerevisiae EPY300), and unfused in yeast; settings: thioredoxin fusion, 50 μM FDP, MgCl2 and MnCl2, pH 7.0, 30°C
[2] = molecular target: T1, HaCS (HaTPS2); experiment: GC-MS of dodecane overlay, expression in S. cerevisiae EPY300; type: cell-based; parameters: gene CS; settings: FDP-overproducing yeast; HaCS and thioredoxin-HaCS
[3] = substrate: CC(C)=CCC/C(C)=C/CC/C(C)=C/CO[P@@](=O)(O)OP(=O)(O)O; experiment: purified protein; type: biochemical, Helianthus annuus; settings: 15 mM MOPSO, 10 mM MgCl2, 1 mM MnCl2, pH 7.0 (assay buffer), 30°C, FPP 0.125 to 30 μM

Row | Molecule | Km [3] [µM] | other results
1 | CC(C)=CCC/C(C)=C/CC/C(C)=C/COP(=O)(O)OP(=O)(O)O [FPP] |  | GC-MS of products after incubation with FDP [1]: in vitro enzyme assay products with substrate FDP showed the presence of the parental mass
2 | CC1=C[C@@H]2C(=C(C)CC[C@H]2C(C)C)CC1 [δ-cadinene] |  | GC-MS of dodecane overlay, expression in S. cerevisiae EPY300 [2]: One of the two main products was identified as δ-cadinene
3 | B1 | 0.82 | 
4 | B2 | 1.06 | 
5 | B3 | 0.74 | 
